The data set deals with Pseudomonas fluorescens HPPD polypeptide (wild-type and mutants). Kind of data set: Coupled HPPD activity assay: turnover and residual turnover in crude HPPD polypeptide extracts with and without Cmpd. 1. The data set is classed as biochemical. Conditions: for Residual turnover: presence of 100 μM Cmpd. 1; for Residual turnover / Turnover: changes in absorbance (OD) at 320 nm in the coupled assay, 30 min; for turnover and residual turnover, comparison in words: 100 μM Cmpd. 1, Table 3; for Residual turnover [%]: 100 μM Cmpd. 1, normalised to turnover without inhibitor; for Turnover: absence of Cmpd. 1. On the procedure:
For the generation of crude HPPD polypeptide extract in micro titer plates (MTP) for the determination of residual activity in inhibition assays, cells were grown in 40 or 150 μl LB medium containing 1% Glucose (Merck, Darmstadt, Germany) and 100 μg/ml ampicillin in a standard 96 well plate (Thermo Fisher Scientific, Waltham, USA) incubated for about 18 h in a humidity incubator at 37° C. 30 μl of this starter culture were added to 600 μl LB medium containing 100 μg/ml ampicillin and 150 mM Hepes (Merck, Darmstadt, Germany) as inoculum for the expression culture in 96 well plates (2 ml deep wells; HJ Bioanalytik, Erkelenz, Germany). The plates were sealed by an aluminium foil, and cells were incubated for 5 h at 37° C. on a plate shaker at 750 rpm. The expression was induced by addition of IPTG in a final concentration of 1 mM followed by further sealed incubation for about 18 h at 30° C. on a plate shaker at 750 rpm.
Cells were harvested by centrifugation at 4° C., 2500 g for 15 min discarding the supernatant. Cell pellets were stored at −80° C. and lysed in 250 μl 1× BugBuster® (Merck, Darmstadt, Germany) in 140 mM Tris (pH 7.8), with 1:25000 diluted BNase® (Qiagen, Hilden, Germany) by incubation of the resuspended cells for 30 min at 4° C. and 1000 rpm. Lysates were clarified by centrifugation for 15 min at 4° C., 2500 g, and 150 μl supernatant were transferred in standard 96 well plate (Thermo Fisher Scientific, Waltham, USA) for subsequent testing in quadruplets.
The activity of HPPD polypeptides was determined in absence or presence of HPPD inhibitors using the coupled HPPD activity assay (FIG. 1).
For the determination of the residual activity, the apparent kinetic constant (kapp) of the determined substrate conversion was measured as kinetic changes in absorbance (OD) at 320 nm in a coupled assay, in that homogentisate (HGA) formed by HPPD from HPP is directly converted into the well absorbing molecule maleylacetoacetate (MAA) by a second enzyme homogentisate dioxygenase (HGD), applied in excess uniformly in all assays (see FIG. 1). The measurements were performed in 384 micro titer plates (Greiner Bio-One GmbH, Frickenhausen, Germany) by plate readers (Tecan infinite M1000 or M1000PRO, Tecan, Männedorf, Switzerland). The kcat/kM ratio of an enzymatic activity is proportional to the apparent kinetic constant kapp and is proportional to kcat/kM*[E] ([E]=enzyme concentration). […] As both kapp measurements in the presence and absence of inhibitor were performed by use of the identical enzyme sample, crude or purified, and thereby at the same enzyme concentration, the enzyme concentration eliminates from the calculation of residual activity and the ratio of both kapp directly indicates the change of kM due to the inhibition.
The assay solution used for determination of residual activities in raw HPPD polypeptide samples was composed by 200 mM sodium phosphate (Merck, Darmstadt, Germany, pH 7.0), 5 mM MgCl2 (Merck, Darmstadt, Germany), 20 mM ascorbate (Sigma-Aldrich, St. Louis, USA), 1 mM DTT (Sigma-Aldrich, St. Louis, USA), 0.1% Pluronic F-68 (Sigma-Aldrich, St. Louis, USA), 40 μM FeSO4 (Sigma-Aldrich, St. […] Louis, USA) and equilibrated for 20 min on ice.

B1: SEQ ID NO:1: reference wild-type Pseudomonas fluorescens HPPD polypeptide (protein, listed as Pseudomonas fluorescens)
chain: MADLYENPMGLMGFEFIEFASPTPGTLEPIFEIMGFTKVATHRSKNVHLYRQGEINLILNNEPNSIASYFAAEHGPSVCGMAFRVKDSQKAYNRALELGAQPIHIDTGPMELNLPAIKGIGGAPLYLIDRFGEGSSIYDIDFVYLEGVERNPVGAGLKVIDHLTHNVYRGRMVYWANFYEKLFNFREARYFDIKGEYTGLTSKAMSAPDGMIRIPLNEESSKGAGQIEEFLMQFNGEGIQHVAFLTDDLVKTWDALKKIGMRFMTAPPDTYYEMLEGRLPDHGEPVDQLQARGILLDGSSVEGDKRLLLQIFSETLMGPVFFEFIQRKGDDGFGEGNFKALFESIERDQVRRGVLTAD
modifications: 4-hydroxyphenylpyruvate dioxygenase (HPPD; Pseudomonas fluorescens) (1)..(358)
B1: the Residual turnover was 0.042. Moreover, the “time-course of inhibition, inhibitor characteristic” value (HPPD inhibitor herbicides, FIG. 2: 200 μM HPP, 0, 4 or 13 μM Cmpd. 1) was “slow and tight binding inhibitor”.

B2: SEQ ID NO:57 (protein)
chain: MADLYENPMGLMGFEFIEFASPTPGTLEPIFEIMGFTKVATHRSKNVHLYRQGEINLILNNEPNSIASYFAAEHGPSVCGMAFRVKDSQKAYNRALELGAQPIHIDTGPMELNLPAIKGIGGAPLYLIDRFGEGSSIYDIDFVYLEGVERNPVGAGLKVIDHLTHNVYRGRMVYWANFYEKLFNFREARYFDIKGEYTGLTSKAMSAPDGMIKIPLNEESSKGAGQIEEFLMQFNGEGIQHVAFLTDDLVKTWDALKKIGMRFMTAPGDEYYEMLEGRLPDHGEPVDQLQARGILLDGSSVEGDKRLLLQIFSEQLMGPVFFEFIQRKGDDGFGPHSFKVLFEQMERDQVRRGVLTAD
modifications: mutant HPPD polypeptide
In the case of B2, the “turnover and residual turnover, comparison in words” value (from here on “turnover and residual turnover”) is “increases significantly the absolute turnover”; the “Residual turnover [%]” value amounted to 68%; the Turnover turned out to be 0.34; the Residual turnover is listed as 0.232.

B3: SEQ ID NO:35 (protein)
chain: MADLYENPMGLMGFEFIEFASPTPGTLEPIFEIMGFTKVATHRSKNVHLYRQGEINLILNNEPNSIASYFAAEHGPSVCGMAFRVKDSQKAYNRALELGAQPIHIDTGPMELNLPAIKGIGGAPLYLIDRFGEGSSIYDIDFVYLEGVERNPVGAGLKVIDHLTHNVYRGRMVYWANFYEKLFNFREARYFDIKGEYTGLTSKAMSAPDGMIRIPLNEESSKGAGQIEEFLMQFNGEGIQHVAFLTDDLVKTWDALKKIGMRFMTAPGDEYYEMLEGRLPDHGEPVDQLQARGILLDGSSVEGDKRLLLQIFSEKLMGPVFFEFIQRKGDDGFGPHSFKVLFEQMERDQVRRGVLTAD
modifications: mutant HPPD polypeptide
B3: the “turnover and residual turnover” value is “increases significantly the turnover and residual turnover”; the “Residual turnover [%]” value is given as 59%; the Turnover worked out at 0.27; the Residual turnover came to 0.158.

B4: SEQ ID NO:36 (protein)
chain: MADLYENPMGLMGFEFIEFASPTPGTLEPIFEIMGFTKVATHRSKNVHLYRQGEINLILNNEPNSIASYFAAEHGPSVCGMAFRVKDSQKAYNRALELGAQPIHIDTGPMELNLPAIKGIGGAPLYLIDRFGEGSSIYDIDFVYLEGVERNPVGAGLKVIDHLTHNVYRGRMVYWANFYEKLFNFREARYFDIKGEYTGLTSKAMSAPDGMIRIPLNEESSKGAGQIEEFLMQFNGEGIQHVAFLTDDLVKTWDALKKIGMRFMTAPGDEYYEMLEGRLPDHGEPVDQLQARGILLDGSSVEGDKRLLLQIFSEQLMGPVFFEFIQRKGDDGFGPHSFKVLFEQMERDQVRRGVLTAD
modifications: mutant HPPD polypeptide
With B4, the “turnover and residual turnover” value is “increases significantly the turnover and residual turnover”; the “Residual turnover [%]” value came to 66%; the Turnover is on record as 0.244; the Residual turnover is on record as 0.162.

B5: SEQ ID NO:38 (protein)
chain: MADLYENPMGLMGFEFIEFASPTPGTLEPIFEIMGFTKVATHRSKNVHLYRQGEINLILNNEPNSIASYFAAEHGPSVCGMAFRVKDSQKAYNRALELGAQPIHIDTGPMELNLPAIKGIGGAPLYLIDRFGEGSSIYDIDFVYLEGVERNPVGAGLKVIDHLTHNVYRGRMVYWANFYEKLFNFREARYFDIKGEYTGLTSKAMSAPDGMIRIPLNEESSKGAGQIEEFLMQFNGEGIQHVAFLTDDLVKTWDALKKIGMRFMTAPGDEYYEMLEGRLPDHGEPVDQLQARGILLDGSSVEGDKRLLLQIFSETLMGPVFFEFIQRKGDDGFGPHSFKVLFEQMERDQVRRGVLTAD
modifications: mutant HPPD polypeptide
B5: the “turnover and residual turnover” value was “does not show a significant turnover”; the Turnover turned out to be 0.008; the Residual turnover was found to be 0.007.

B6: SEQ ID NO:26 (protein)
chain: MADLYENPMGLMGFEFIEFASPTPGTLEPIFEIMGFTKVATHRSKNVHLYRQGEINLILNNEPNSIASYFAAEHGPSVCGMAFRVKDSQKAYNRALELGAQPIHIDTGPMELNLPAIKGIGGAPLYLIDRFGEGSSIYDIDFVYLEGVERNPVGAGLKVIDHLTHNVYRGRMVYWANFYEKLFNFREARYFDIKGEYTGLTSKAMSAPDGMIRIPLNEESSKGAGQIEEFLMQFNGEGIQHVAFLTDDLVKTWDALKKIGMRFLTAPGDEYYEMLEGRLPDHGEPVDQLQARGILLDGSSVEGDKRLLLQIFSEQLMGPVFFEFIQRKGDDGFGPHSFKVLFESIERDQVRRGVLTAD
modifications: mutant HPPD polypeptide
In the case of B6, the “turnover and residual turnover” value is “significant improvement regarding residual turnover”; the “Residual turnover [%]” value worked out at 60%; the Turnover is 0.235; the Residual turnover was determined as 0.14.

B7: SEQ ID NO:2 (protein)
chain: MADLYENPMGLMGFEFIEFASPTPGTLEPIFEIMGFTKVATHRSKNVHLYRQGEINLILNNEPNSIASYFAAEHGPSVCGMAFRVKDSQKAYNRALELGAQPIHIDTGPMELNLPAIKGIGGAPLYLIDRFGEGSSIYDIDFVYLEGVERNPVGAGLKVIDHLTHNVYRGRMVYWANFYEKLFNFREARYFDIKGEYTGLTSKAMSAPDGMIRIPLNEESSKGAGQIEEFLMQFNGEGIQHVAFLTDDLVKTWDALKKIGMRFMTAPPDTYYEMLEGRLPDHGEPVDQLQARGILLDGSSVEGDKRLLLQIFSETLMGPVFFEFIQRKGDDGFGPWNFAQLFESIERDQVRRGVLTAD
modifications: mutant HPPD polypeptide
In the case of B7, the Turnover came to 0.092 and the Residual turnover stood at 0.041.

B8: SEQ ID NO:28 (protein)
chain: MADLYENPMGLMGFEFIEFASPTPGTLEPIFEIMGFTKVATHRSKNVHLYRQGEINLILNNEPNSIASYFAAEHGPSVCGMAFRVKDSQKAYNRALELGAQPIHIDTGPMELNLPAIKGIGGAPLYLIDRFGEGSSIYDIDFVYLEGVERNPVGAGLKVIDHLTHNVYRGRMVYWANFYEKLFNFREARYFDIKGEYTGLTSKAMSAPDGMIRIPLNEESSKGAGQIEEFLMQFNGEGIQHVAFLTDDLVKTWDALKKIGMRFLTAPGDEYYEMLEGRLPDHGEPVDQLQARGILLDGSSVEGDKRLLLQIFSETLMGPVFFEFIQRKGDDGFGPHSFKVLFESIERDQVRRGVLTAD
modifications: mutant HPPD polypeptide
Regarding B8, the “turnover and residual turnover” value is “decreases the turnover and residual turnover”; the “Residual turnover [%]” value is given as 50%; the Turnover is given as 0.203; the Residual turnover was 0.102.

Values taken from patent publication US11371056B2, “HPPD variants and methods of use” (BASF Agricultural Solutions Seed US LLC, priority 2017, dated 2022).
